Assay results from patent publication US9127076B2, “Modified peptides having toxin-enhancing effects” (The University of Georgia Research Foundation, dated 2015).

B1: Sf-CR10-12 (receptor)
chain: MKFLDRLSATDEDGLHAGRVTFSIAGNDEAAEYFNVLNDGDNSAMLTLKQALPAGVQQFELVIRATDGGTEPGPRSTDCSVTVVFVMTQGDPVFDDNAASVRFVEKEAGMSEKFQLPQADDPKNYRCMDDCHTIYYSIVDGNDGDHFAVEPETNVIYLLKPLDRSQQEQYRVVVAASNTPGGTSTLSSSLLTVTIGVREANPRPIFESEFYTAGVLHTDSIHKELVYLAAKHSEGLPIVYSIDQETMKIDESLQTVVEDAFDINSATGVISLNFQPTSVMHGSFDFEVVASDTRGASDRAKVSIYMISTRVRVHHHHHH
B2: Sf-CR10-12(PS) (receptor)
chain: MAFLDCLSATDEDGLHAGCVTFSIAGNDEAAEYFNVLNDGDNSAMLTLSQALPAGVQQFELVISATDGGTEPGPSSTDCSVTVVFVMTQGDPVFDDNAASVSFVEHEAGMSESFQLPQADDPSNYACMDDCHTIYYSIVDGNDGDHFAVEPETNVIYLLSPLDSSQQEQYSVVVAASNTPGGTSTLSSSLLTVTIGVSEANPSPIFESEFYTAGVLHTDSIHSELVYLAASHSEGLPIVYSIDQETMSIDESLQTVVEDAFDINSATGVISLNFQPTSVMHGSFDFEVVASDTCGASDCASVSIYMISTRVRVHHHHHH
B3: Ms-CR10-12(PS) (receptor)
chain: MHLECISATDPDGLHAGVVTFQVVGDEESQAYFQVVNDGANLGSLSLLQAVPEEIAEFSITICATDQGTDPGPLSTDMTFAVVFVPTQGEPAFASSEHAVAFIEASAGMEESHQLPLAQDIANHLCEDDCHSIYYAIIDGNSEGHFGLDPVANALFLSAELIAEQSASHTLQVAASNSPDGGIPLPASILTVTVTVAEADPAPVFMAELYTAGISTADSIGCELLALHATQSEGAAITYAIDYDTMVVDPSLEAVCQSAFVLNAQTGVLTLNIQPTATMHGLFNFEVTATDTAGAQDRTDVTVYVVSSQNRLEHHHHHH

Target: Cry1Fa toxin (Bacillus thuringiensis, UniProt Q03746)
Test: cell-based or functional assay

Q: B1 was tested. Which “larval mortality and larval weight, diet surface bioassay, neonate S. frugiperda, 0.1 µg/cm^2 Cry1Fa” value (“larval mortality and larval weight” for short) did it give?
A: ~2 fold

Q: Which “larval mortality and larval weight” value does the source give for B2 here?
A: ~4 fold

Q: With B3 as the binder, how does the “larval mortality and larval weight” value read?
A: < 2 fold
